T1: human tenascin-C rCd4-His-FBG (rat; human, UniProt P05540 207-392, limits assumed)
T1 construct: domain: domains 3 and 4; C-terminal FBG fusion; biotinylated in the ELISA and HTRF screens; also called Hu TNC; human TNC rCd4-His-FBG; not shown: 6His tag
T1 sequence (chain (part 1 of 2)): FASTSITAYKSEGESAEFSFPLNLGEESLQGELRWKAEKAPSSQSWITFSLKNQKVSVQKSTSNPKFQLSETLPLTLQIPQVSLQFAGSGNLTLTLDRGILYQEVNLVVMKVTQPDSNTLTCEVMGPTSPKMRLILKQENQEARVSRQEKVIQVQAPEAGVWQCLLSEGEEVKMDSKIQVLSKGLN
T1 sequence (chain (part 2 of 2)): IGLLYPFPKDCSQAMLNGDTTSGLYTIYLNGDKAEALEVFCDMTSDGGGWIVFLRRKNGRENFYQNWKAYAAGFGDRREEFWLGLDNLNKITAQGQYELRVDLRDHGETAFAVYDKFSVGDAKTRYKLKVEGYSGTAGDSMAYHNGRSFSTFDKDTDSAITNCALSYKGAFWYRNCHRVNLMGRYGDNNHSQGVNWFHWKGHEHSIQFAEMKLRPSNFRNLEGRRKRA

T2: mouse tenascin-C rCd4-His-FBG (rat; mouse, UniProt P05540 207-392, limits assumed)
T2 construct: domain: domains 3 and 4; C-terminal FBG fusion; biotinylated in the ELISA screen; also called Mu TNC; mouse TNC rCd4-His-FBG; not shown: 6His tag
T2 sequence (chain (part 1 of 2)): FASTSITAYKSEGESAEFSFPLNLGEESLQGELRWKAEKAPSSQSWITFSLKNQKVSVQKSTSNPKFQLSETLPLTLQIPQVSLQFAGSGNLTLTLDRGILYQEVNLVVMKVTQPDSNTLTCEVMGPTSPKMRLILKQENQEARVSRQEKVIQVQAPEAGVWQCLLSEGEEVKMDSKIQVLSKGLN
T2 sequence (chain (part 2 of 2)): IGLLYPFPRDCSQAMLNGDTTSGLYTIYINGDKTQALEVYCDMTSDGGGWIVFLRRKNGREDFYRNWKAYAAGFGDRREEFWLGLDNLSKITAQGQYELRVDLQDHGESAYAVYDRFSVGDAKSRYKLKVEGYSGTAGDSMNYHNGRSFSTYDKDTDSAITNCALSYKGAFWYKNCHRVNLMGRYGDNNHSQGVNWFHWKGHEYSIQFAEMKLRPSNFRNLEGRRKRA


Tests used:
[1] = target: T1, human tenascin-C rCd4-His-FBG; experiment: SPR off-rate screen, captured IgG4 supernatant, 25 C
Protocol: (§1) The 31 scFv of interest were sub-cloned into a human IgG4 expression vector for generation of antibodies as human IgG4 with a hinge-stabilising mutation (S241P; Angal et al, 1993). […] Briefly, surface plasmon resonance (SPR) experiments were performed using a BIAcore T100 instrument and followed the protocol according to the Human antibody capture kit protocol (GE, BR-1008-39). For off-rate screening, 10,000 response units (RU) of anti-human Fc IgG (GE, BR-1008-39) was immobilised on flow-cells (FC1 and FC2) of a Series 5 CM5 dextran sensor chip (BR-1005-30) using EDC/NHS cross-linking chemistry according to the amine coupling kit protocol (GE, BR-1000-50). Culture supernatants containing expressed IgG4 were diluted 1:2 with 2×PBS-T and injected into FC2 (flowrate 5 μl/min, 60 s contact time) to enable antibody capture at 25° C. […] A fixed concentration of antigen (15 nM of human and mouse TNC rCd4-His-FBG and 100 nM of human TNR rCd4-His-FBG) was injected with a flow-path via FC 1 (reference flow cell) and FC 2 (antibody capture flow cell), with a flow rate of 30 μl/min, and the association and dissociation phases measured over 1 and 5 min time periods, respectively. Regeneration of the binding surface employed 3M MgCl₂ with 30 s contact time. Off rates were determined by reference cell subtraction and fitting the sensogram experimental data assuming a 1:1 interaction using BIAevaluation software (GE, BR-1005-97).

[2] = target: T2, mouse tenascin-C rCd4-His-FBG; experiment: as above
Protocol: as §1

Binder | koff [1] [s⁻¹] | koff [2] [s⁻¹]
165_13_A4 human IgG4 (antibody, V domains shown, human IgG4 with hinge S241P) VH: QVQLVESGGGLVQPGRSLRLSCAASGFTFDDYAMHWVRQAPGKGLEWVSGISGSGGSTYYADSVKGRFTISRDNAKNSLYLQMNSLRAEDTALYYCAKDKYPVLDTFDIWGQGTMVTVSS VL: DIQMTQSPASLPTPVGDRVTITCRASQYIQGFLNWYQQKPGKAPKLLIYDASNLETGVPSRFSGSGSGTDFTLTISSLQPEDFATYYCQQSYSTPQTFGQGTKVDIKR | 0.000872 | 0.00797
160_01_E3 human IgG4 (antibody, V domains shown, human IgG4 with hinge S241P; also called Antibody 160 01 E3 (derived from 2A5)) VH: EVRLVQSGAEVKKPGASVKVSCKVSGYTLTELSMHWVRQAPGKGLEWMGGFDPEDGETIYAQKFQGRVTMTEDTSTDTAYMELSSLRSEDTAVYYCATQRYVWEALTYWGQGTLVTVSS VL: DIQMTQSPASLPTSVGDRVTITCRASQYIQGFLNWYQQKPGKAPRLLIYAASTLQDGVPSRFSGSGYGTDFTLTISSLQPEDFATYYCQQSYSTPWTFGQGTKVEIKR |  | 0.0559
160_01_H4 human IgG4 (antibody, V domains shown, human IgG4 with hinge S241P; also called Antibody 160 01 H4 (derived from 2A5)) VH: EVRLVQSGAEVKKPGASVKVSCKVSGYTLTELSMHWVRQAPGKGLEWMGGFDPEDGETIYAQKFQGRVTMTEDTSTDTAYMELSSLRSEDTAVYYCATGRFVWEALTYWGQGTLVTVSS VL: DIQMTQSPASLPTSVGDRVTITCRASQYIQGFLNWYQQKPGKAPRLLIYAASTLQDGVPSRFSGSGYGTDFTLTISSLQPEDFATYYCQQSYSTPWTFGQGTKVEIKR | 1.6e-05 | 0.0171
162_02_F4 human IgG4 (antibody, V domains shown, human IgG4 with hinge S241P; also called Antibody 162 02 F4 (derived from 2A5)) VH: EVRLVQSGAEVKKPGASVKVSCKVSGYTLTELSMHWVRQAPGKGLEWMGGFDPEDGETIYAQKFQGRVTMTEDTSTDTAYMELSSLRSEDTAVYYCATAQKETYALTYWGQGTLVTVSS VL: DIQMTQSPASLPTSVGDRVTITCRASQYIQGFLNWYQQKPGKAPRLLIYAASTLQDGVPSRFSGSGYGTDFTLTISSLQPEDFATYYCMHHYRSPWTFGQGTKVEIKR | 5.9e-07 | 0.001
160_01_D6 human IgG4 (antibody, V domains shown, human IgG4 with hinge S241P; also called Antibody 160 01 D6 (derived from 2A5)) VH: EVRLVQSGAEVKKPGASVKVSCKVSGYTLTELSMHWVRQAPGKGLEWMGGFDPEDGETIYAQKFQGRVTMTEDTSTDTAYMELSSLRSEDTAVYYCATAQADPHLFTYWGQGTLVTVSS VL: DIQMTQSPASLPTSVGDRVTITCRASQYIQGFLNWYQQKPGKAPRLLIYAASTLQDGVPSRFSGSGYGTDFTLTISSLQPEDFATYYCQQSYSTPWTFGQGTKVEIKR | 1.05e-05 | 0.0559
162_02_C1 human IgG4 (antibody, V domains shown, human IgG4 with hinge S241P; also called Antibody 162 02 C1 (derived from 2A5)) VH: EVRLVQSGAEVKKPGASVKVSCKVSGYTLTELSMHWVRQAPGKGLEWMGGFDPEDGETIYAQKFQGRVTMTEDTSTDTAYMELSSLRSEDTAVYYCATAQKETYALTYWGQGTLVTVSS VL: DIQMTQSPASLPTSVGDRVTITCRASQYIQGFLNWYQQKPGKAPRLLIYAASTLQDGVPSRFSGSGYGTDFTLTISSLQPEDFATYYCLHHYRAPWTFGQGTKVEIKR | < 1e-05 | 0.0016
180_11_F5 human IgG4 (antibody, V domains shown, human IgG4 with hinge S241P; also called Antibody 180 11 F5 (derived from B12)) VH: QVQLVESGGGLVQPGRSLRLSCAASGFTFDDYAMHWVRQAPGKGLEWVSGISGSGGSTYYADSVKGRFTISRDNAKNSLYLQMNSLRAEDTALYYCAKVMRTGLDTFDIWGQGTMVTVSS VL: DIQMTQSPASLPTPVGDRVTITCRASQYIQGFLNWYQQKPGKAPKLLIYDASNLETGVPSRFSGSGSGTDFTLTISSLQPEDFATYYCQQSYSTPQTFGQGTKVDIKR | 2.6e-05 | 1
162_02_C2 human IgG4 (antibody, V domains shown, human IgG4 with hinge S241P; also called Antibody 162 02 C2 (derived from 2A5)) VH: EVRLVQSGAEVKKPGASVKVSCKVSGYTLTELSMHWVRQAPGKGLEWMGGFDPEDGETIYAQKFQGRVTMTEDTSTDTAYMELSSLRSEDTAVYYCATAQKETYALTYWGQGTLVTVSS VL: DIQMTQSPASLPTSVGDRVTITCRASQYIQGFLNWYQQKPGKAPRLLIYAASTLQDGVPSRFSGSGYGTDFTLTISSLQPEDFATYYCMHHYRAPWTFGQGTKVEIKR | 1.15e-05 | 0.0017
161_01_C11 human IgG4 (antibody, V domains shown, human IgG4 with hinge S241P; also called Antibody 161 01 C11 (derived from 2A5)) VH: EVRLVQSGAEVKKPGASVKVSCKVSGYTLTELSMHWVRQAPGKGLEWMGGFDPEDGETIYAQKFQGRVTMTEDTSTDTAYMELSSLRSEDTAVYYCATAQKEWLPDVTWGQGTLVTVSS VL: DIQMTQSPASLPTSVGDRVTITCRASQYIQGFLNWYQQKPGKAPRLLIYAASTLQDGVPSRFSGSGYGTDFTLTISSLQPEDFATYYCQQSYSTPWTFGQGTKVEIKR | 2.2e-07 | 
165_13_E1 human IgG4 (antibody, V domains shown, human IgG4 with hinge S241P) VH: QVQLVESGGGLVQPGRSLRLSCAASGFTFDDYAMHWVRQAPGKGLEWVSGISGSGGSTYYADSVKGRFTISRDNAKNSLYLQMNSLRAEDTALYYCAKDISAVMDVPQTWGQGTMVTVSS VL: DIQMTQSPASLPTPVGDRVTITCRASQYIQGFLNWYQQKPGKAPKLLIYDASNLETGVPSRFSGSGSGTDFTLTISSLQPEDFATYYCQQSYSTPQTFGQGTKVDIKR | 1.4e-06 | 0.0577
163_02_A12 human IgG4 (antibody, V domains shown, human IgG4 with hinge S241P; also called Antibody 163 02 A12 (derived from 2A5)) VH: EVRLVQSGAEVKKPGASVKVSCKVSGYTLTELSMHWVRQAPGKGLEWMGGFDPEDGETIYAQKFQGRVTMTEDTSTDTAYMELSSLRSEDTAVYYCATAQKETYALTYWGQGTLVTVSS VL: DIQMTQSPASLPTSVGDRVTITCRASQYIQGFLNWYQQKPGKAPRLLIYAASTLQDGVPSRFSGSGYGTDFTLTISSLQPEDFATYYCLHHYREPWTFGQGTKVEIKR | 3.2e-07 | 0.00094
163_02_D11 human IgG4 (antibody, V domains shown, human IgG4 with hinge S241P; also called Antibody 163 02 D11 (derived from 2A5)) VH: EVRLVQSGAEVKKPGASVKVSCKVSGYTLTELSMHWVRQAPGKGLEWMGGFDPEDGETIYAQKFQGRVTMTEDTSTDTAYMELSSLRSEDTAVYYCATAQKETYALTYWGQGTLVTVSS VL: DIQMTQSPASLPTSVGDRVTITCRASQYIQGFLNWYQQKPGKAPRLLIYAASTLQDGVPSRFSGSGYGTDFTLTISSLQPEDFATYYCLHHYKSPWTFGQGTKVEIKR | 3.2e-07 | 0.00098
165_13_B3 human IgG4 (antibody, V domains shown, human IgG4 with hinge S241P) VH: QVQLVESGGGLVQPGRSLRLSCAASGFTFDDYAMHWVRQAPGKGLEWVSGISGSGGSTYYADSVKGRFTISRDNAKNSLYLQMNSLRAEDTALYYCAKALARGHDTFDIWGQGTMVTVSS VL: DIQMTQSPASLPTPVGDRVTITCRASQYIQGFLNWYQQKPGKAPKLLIYDASNLETGVPSRFSGSGSGTDFTLTISSLQPEDFATYYCQQSYSTPQTFGQGTKVDIKR | 1.4e-06 | 0.03
160_01_F1 human IgG4 (antibody, V domains shown, human IgG4 with hinge S241P; also called Antibody 160 01 F1 (derived from 2A5)) VH: EVRLVQSGAEVKKPGASVKVSCKVSGYTLTELSMHWVRQAPGKGLEWMGGFDPEDGETIYAQKFQGRVTMTEDTSTDTAYMELSSLRSEDTAVYYCATAQSPWSGMTYWGQGTLVTVSS VL: DIQMTQSPASLPTSVGDRVTITCRASQYIQGFLNWYQQKPGKAPRLLIYAASTLQDGVPSRFSGSGYGTDFTLTISSLQPEDFATYYCQQSYSTPWTFGQGTKVEIKR | 4e-06 | 
